Patent publication US20090075889A1 (YEDA RESEARCH AND DEVELOPMENT, published 2009)

B1: IREN 10B (other)
chain: MSGSQNNDKRQFLLERLLDAVKQCQIRFGGRKEIASDSDSRVTCLCAQFEAVLQHGLKRSRGLALTAAAIKQAAGFASKTETEPVFWYYVKEVLNKHELQRFYSLRHIASDVGRGRAWLRCALNEHSLERYLHMLLADRCRLSTFYEDWSFVMDEERSSMLPTMAAGLNSILFAINIDNKDLNGQSKFAPTVSDLLKESTQNVTSLLKESTQGVSSLFREITASSAVSILIKPEQETDPLPVVSRNVSADAKCKKERKKKKKVTNIISFDDEEDEQNSGDVFKKTPGAGESSEDNSDRSSVNIMSAFESPFGPNSNGSQSSNSWKIDSLSLNGEFGYQKLDVKSIDDEDVDENEDDVYGNSSGRKHRGHSESPEKPLEGNTCLSQMHSWAPLKVLHNDSDILFPVSGVGSYSPADAPLGSLENGTGPEDHVLPDPGLRYSVEASSPGHGSPLSSLLPSASVPESMTISELRQATVAMMNRKDELEEENRSLRNLLDGEMEHSAALRQEVDTLKRKVAEQEERQGMKVQALARENEVLKVQLKKYVGAVQMLKREGQTAEVPNLWSVDGEVTVAEQKPGEIAEELASSYERKLIEVAEMHGELIEFNERLHRALVAKEALVSQMRQELIDLRGPVPGDLSQTSEDQSLSDFEISNRALINVWIPSVFLRGKAANAFHVYQVYIRIKDDEWNIYRRYTEFRSLHHKLQNKYPQVRAYNFPPKKAIGNKDAKFVEERRKQLQNYLRSVMNKVIQMVPEFAASPKKETLIQLMPFFVDITPPGEPVNSRPKAASRFPKLSRGQPRETRNVEPQSGDL
notes: Splice isoform of IREN; Used as both bait and prey in yeast two-hybrid; also called clone 10B
B2: IREN (other)
chain: MSGSQNNDKRQFLLERLLDAVKQCQIRFGGRKEIASDSDSRVTCLCAQFEAVLQHGLKRSRGLALTAAAIKQAAGFASKTETEPVFWYYVKEVLNKHELQRFYSLRHIASDVGRGRAWLRCALNEHSLERYLHMLLADRCRLSTFYEDWSFVMDEERSSMLPTMAAGLNSILFAINIDNKDLNGQSKFAPTVSDLLKESTQNVTSLLKESTQGVSSLFREITASSAVSILIKPEQETDPLPVVSRNVSADAKCKKERKKKKKVTNIISFDDEEDEQNSGDVFKKTPGAGESSEDNSDRSSVNIMSAFESPFGPNSNGSQSSNSWKIDSLSLNGEFGYQKLDVKSIDDEDVDENEDDVYGNSSGRKHRGHSESPEKPLEGNTCLSQMHSWAPLKVLHNDSDILFPVSGVGSYSPADAPLGSLENGTGPEDHVLPDPGLRYSVEASSPGHGSPLSSLLPSASVPESMTISELRQATVAMMNRKDELEEENRSLRNLLDGEMEHSAALRQEVDTLKRKVAEQEERQGMKVQALASYLCYFVRRF
notes: Tested in yeast two-hybrid as a hybrid protein; the fusion partner is not included in the chain; also called IκB REgulator; IREN protein
B3: IREN198-541 (other)
chain: ESTQNVTSLLKESTQGVSSLFREITASSAVSILIKPEQETDPLPVVSRNVSADAKCKKERKKKKKVTNIISFDDEEDEQNSGDVFKKTPGAGESSEDNSDRSSVNIMSAFESPFGPNSNGSQSSNSWKIDSLSLNGEFGYQKLDVKSIDDEDVDENEDDVYGNSSGRKHRGHSESPEKPLEGNTCLSQMHSWAPLKVLHNDSDILFPVSGVGSYSPADAPLGSLENGTGPEDHVLPDPGLRYSVEASSPGHGSPLSSLLPSASVPESMTISELRQATVAMMNRKDELEEENRSLRNLLDGEMEHSAALRQEVDTLKRKVAEQEERQGMKVQALASYLCYFVRRF
notes: Two-hybrid prey construct; also called N-terminal deletion mutant of IREN; IRENΔN
B4: IREN198-388 (other)
chain: ESTQNVTSLLKESTQGVSSLFREITASSAVSILIKPEQETDPLPVVSRNVSADAKCKKERKKKKKVTNIISFDDEEDEQNSGDVFKKTPGAGESSEDNSDRSSVNIMSAFESPFGPNSNGSQSSNSWKIDSLSLNGEFGYQKLDVKSIDDEDVDENEDDVYGNSSGRKHRGHSESPEKPLEGNTCLSQMHS
notes: Two-hybrid prey construct
B5: TRAF2225-501 (other, human, UniProt Q12933 225-501, looked up)
chain: ETVEGEKQQEHEVQWLREHLAMLLSSVLEAKPLLGDQSHAGSELLQRCESLEKKTATFENIVCVLNREVERVAMTAEACSRQHRLDQDKIEALSSKVQQLERSIGLKDLAMADLEQKVLEMEASTYDGVFIWKISDFARKRQEAVAGRIPAIFSPAFYTSRYGYKMCLRIYLNGDGTGRGTHLSLFFVVMKGPNDALLRWPFNQKVTLMLLDQNNREHVIDAFRPDVTSSSFQRPVNDMNIASGCPLFCPVSKMEAKNSYVRDDAIFIKAIVDLTGL
notes: range 225-501; Two-hybrid bait construct; also called C-terminal part of TRAF2, amino acids 225 to 501; C-terminal construct comprising the TRAF domain
B6: human TRAF2 (other, UniProt Q12933 1-501, looked up)
chain: MAAASVTPPGSLELLQPGFSKTLLGTKLEAKYLCSACRNVLRRPFQAQCGHRYCSFCLASILSSGPQNCAACVHEGIYEEGISILESSSAFPDNAARREVESLPAVCPSDGCTWKGTLKEYESCHEGRCPLMLTECPACKGLVRLGEKERHLEHECPERSLSCRHCRAPCCGADVKAHHEVCPKFPLTCDGCGKKKIPREKFQDHVKTCGKCRVPCRFHAIGCLETVEGEKQQEHEVQWLREHLAMLLSSVLEAKPLLGDQSHAGSELLQRCESLEKKTATFENIVCVLNREVERVAMTAEACSRQHRLDQDKIEALSSKVQQLERSIGLKDLAMADLEQKVLEMEASTYDGVFIWKISDFARKRQEAVAGRIPAIFSPAFYTSRYGYKMCLRIYLNGDGTGRGTHLSLFFVVMKGPNDALLRWPFNQKVTLMLLDQNNREHVIDAFRPDVTSSSFQRPVNDMNIASGCPLFCPVSKMEAKNSYVRDDAIFIKAIVDLTGL
notes: range 1-501; the fusion partner is not included in the chain; also called hTRAF2; full length TRAF2

Tests used:
[1] = biological target: the molecule itself; assay: yeast two-hybrid, bait IREN 10B, prey IREN 10B
yeast two-hybrid = biological target: the molecule itself; assay: yeast two-hybrid
human TRAF2 [2] = biological target: B6; assay: yeast two-hybrid, bait TRAF2, prey IREN198-541
Description: (§1) Positive clones picked up in the two hybrid screen were subjected to lacZ color development test in SFY526 yeast cells, following Clontech Laboratories' manual (for details see above mentioned publications and patent applications). In brief, transformants were allowed to grow at 30° C. for 2-4 days until reaching about 2 mm in diameter, then were transferred onto Whatman filters. The filters went through a freeze/thaw treatment in order to permeabilize the cells, then soaked in a buffer (16.1 mg/ml Na₂HP0₄ 7H₂0; 5.5 mg/ml NaH₂P0₄′H₂0; 0.75 mg/ml KCl; 0.75 mg/ml MgS0₄′7H₂O, pH=7) containing 0.33 mg/ml X-gal and 0.35 mM β-mercaptoethanol. Colonies were monitored for development of blue color which is an indication for induction of β-galactosidase.
(§2) In order to narrow down the region on the TRAF2 molecule which interacts with IREN two additional constructs were made. One construct comprising the N-terminal part of the TRAF2 molecule, amino acids 1 to 224 designated RING₁₋₂₂₄ comprising the Ring finger and the zinc finger motifs. The second construct included only the C-terminal part of TRAF2, amino acids 225 to 501, covering the “TRAF-domain” as well as an additional 42 amino acids. These two constructs were used as baits in two hybrid tests.

human TRAF2 [3] = biological target: B6; assay: yeast two-hybrid, bait TRAF2, prey IREN198-388
Description: as §1, §2

IREN [4] = biological target: B2; assay: yeast two-hybrid, bait TRAF2225-501, prey IREN
Description: as §1, §2

IREN [5] = biological target: B2; assay: yeast two-hybrid, bait TRAF2, prey IREN
Description: as §1, §2

IREN 10B = biological target: B1; assay: yeast two-hybrid, bait TRAF2, prey IREN 10B

Binder: B1
binding result [1]: binds

Binder: B2
binding result (yeast two-hybrid): no binding

Binder: B3
binding result (human TRAF2 [2]): binds

Binder: B4
binding result (human TRAF2 [3]): binds

Binder: B5
binding result (IREN [4]): binds

Binder: B6
binding result (IREN [5]): binds
binding result (IREN 10B): binds
